This experiment addresses T1, LOXL2-Flag (human, UniProt Q9Y4K0 26-774).
T1 construct: Lysyl oxidase-like 2 (LOXL2), human, full-length form (774 aa by the printed limits of its C-terminal domain); also called Flag-tagged LOXL2; source: HEK293T, transfected, immunopurified
T1 sequence (looked up): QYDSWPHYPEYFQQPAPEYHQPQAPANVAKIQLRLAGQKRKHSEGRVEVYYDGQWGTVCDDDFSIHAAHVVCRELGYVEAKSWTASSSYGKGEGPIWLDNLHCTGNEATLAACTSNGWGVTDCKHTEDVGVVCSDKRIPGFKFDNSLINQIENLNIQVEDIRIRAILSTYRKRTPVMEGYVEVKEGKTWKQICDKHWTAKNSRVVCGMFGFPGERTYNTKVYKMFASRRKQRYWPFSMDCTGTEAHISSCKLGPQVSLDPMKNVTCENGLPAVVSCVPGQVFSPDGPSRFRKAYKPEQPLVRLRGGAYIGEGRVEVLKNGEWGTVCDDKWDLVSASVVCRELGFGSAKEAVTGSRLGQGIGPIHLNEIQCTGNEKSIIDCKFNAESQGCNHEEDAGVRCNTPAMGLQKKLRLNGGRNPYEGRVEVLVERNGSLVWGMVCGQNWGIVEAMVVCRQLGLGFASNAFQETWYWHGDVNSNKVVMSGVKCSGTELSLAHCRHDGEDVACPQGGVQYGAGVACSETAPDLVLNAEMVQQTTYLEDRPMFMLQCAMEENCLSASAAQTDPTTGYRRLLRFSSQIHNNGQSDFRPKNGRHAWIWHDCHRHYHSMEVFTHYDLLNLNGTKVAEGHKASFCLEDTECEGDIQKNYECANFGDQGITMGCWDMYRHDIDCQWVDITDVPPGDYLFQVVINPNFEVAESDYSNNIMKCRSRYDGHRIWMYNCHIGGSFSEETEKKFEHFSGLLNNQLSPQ
In words: pull-down; Purified GST-aldolase A or GST from bacteria on glutathione resins, incubated with immunopurified LOXL2-Flag or L2Δ13-Flag from HEK293T at 4 °C for 2 h; immunoblot with anti-Flag. The note with it: both partners purified.

B1: GST-aldolase A (enzyme, human)
chain: PYQYPALTPEQKKELSDIAHRIVAPGKGILAADESTGSIAKRLQSIGTENTEENRRFYRQLLLTADDRVNPCIGGVILFHETLYQKADDGRPFPQVIKSKGGVVGIKVDKGVVPLAGTNGETTTQGLDGLSERCAQYKKDGADFAKWRCVLKIGEHTPSALAIMENANVLARYASICQQNGIVPIVEPEILPDGDHDLKRCQYVTEKVLAAVYKALSDHHIYLEGTLLKPNMVTPGHACTQKFSHEEIAMATVTALRRTVPPAVTGITFLSGGQSEEEASINLNAINKCPLLKPWALTFSYGRALQASALKAWGGKKENLKAAQEEYVKRALANSLACQGKYTPSGQAGAAASESLFVSNHAY
notes: Aldolase A (fructose-bisphosphate aldolase A), human; also called GST-tagged aldolase A; GST-Aldolase A fusion protein; source: bacteria, purified recombinant, retained on glutathione resins
On to B1, for which the binding result is “binds”.

(Values after publication PMC9547286, “LOXL2-dependent deacetylation of aldolase A induces metabolic reprogramming and tumor progression^☆” (Redox Biology, 2022).)
